Among the test systems are histone octamer H2A R81A; histone octamer H2A R81E; histone octamer H2A R88A; histone octamer H2A R88E.
Common to all, as to experiment: ensemble FRET (microplate), salt-induced disassembly
Common to all, as to settings: Reconstitution by dialysis from 2 M to 5 mM NaCl in 10 mM Tris-HCl, 0.1 mM EDTA; FRET over NaCl titration (FRET buffer and temperature not in the material) …

In data set [1] the test system is histone octamer H2A R81A/R88A.
The subject of data set [2] is histone octamer H2A R81E/R88E.

For Widom 601 170 bp, the K half in data set [1] is 568 mM NaCl; in the data set with histone octamer H2A R81A, 632 mM NaCl; in data set [2], 452 mM NaCl; with histone octamer H2A R81E, 468 mM NaCl; with histone octamer H2A R88A, 668 mM NaCl; in the data set with histone octamer H2A R88E, 455 mM NaCl.

Source of the values: paper PMC5643395.
